T1: TAP-tagged Nrd1 (S. cerevisiae, UniProt P53617 1-575)
T1 construct: also called Nrd1-TAP; source: S. cerevisiae NRD1-TAP strain (ACY2293; Thermo Scientific Open Biosystems), in lysate
T1 sequence (looked up): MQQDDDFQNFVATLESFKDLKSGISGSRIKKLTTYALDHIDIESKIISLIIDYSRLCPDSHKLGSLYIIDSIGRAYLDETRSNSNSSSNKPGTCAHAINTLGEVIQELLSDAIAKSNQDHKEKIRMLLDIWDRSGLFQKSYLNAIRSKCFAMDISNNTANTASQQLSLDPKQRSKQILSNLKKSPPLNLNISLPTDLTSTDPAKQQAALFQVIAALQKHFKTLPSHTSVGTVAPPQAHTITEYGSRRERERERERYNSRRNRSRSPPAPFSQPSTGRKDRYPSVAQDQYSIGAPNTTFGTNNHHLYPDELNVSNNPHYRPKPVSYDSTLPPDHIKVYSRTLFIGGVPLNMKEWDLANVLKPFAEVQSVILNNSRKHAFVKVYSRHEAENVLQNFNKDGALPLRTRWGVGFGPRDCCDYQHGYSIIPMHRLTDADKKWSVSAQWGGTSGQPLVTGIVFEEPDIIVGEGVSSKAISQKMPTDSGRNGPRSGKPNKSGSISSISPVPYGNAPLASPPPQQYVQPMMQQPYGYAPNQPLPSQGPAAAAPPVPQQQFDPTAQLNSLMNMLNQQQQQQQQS

T2: recombinant GST-tagged full-length Nab3 (S. cerevisiae, UniProt P38996 1-802)
T2 construct: Nab3, S. cerevisiae, full length, cloned into pGEX-TEV; also called GST-Nab3; source: E. coli DE3 cells, purified (glutathione Sepharose 4B, batch)
T2 sequence (looked up): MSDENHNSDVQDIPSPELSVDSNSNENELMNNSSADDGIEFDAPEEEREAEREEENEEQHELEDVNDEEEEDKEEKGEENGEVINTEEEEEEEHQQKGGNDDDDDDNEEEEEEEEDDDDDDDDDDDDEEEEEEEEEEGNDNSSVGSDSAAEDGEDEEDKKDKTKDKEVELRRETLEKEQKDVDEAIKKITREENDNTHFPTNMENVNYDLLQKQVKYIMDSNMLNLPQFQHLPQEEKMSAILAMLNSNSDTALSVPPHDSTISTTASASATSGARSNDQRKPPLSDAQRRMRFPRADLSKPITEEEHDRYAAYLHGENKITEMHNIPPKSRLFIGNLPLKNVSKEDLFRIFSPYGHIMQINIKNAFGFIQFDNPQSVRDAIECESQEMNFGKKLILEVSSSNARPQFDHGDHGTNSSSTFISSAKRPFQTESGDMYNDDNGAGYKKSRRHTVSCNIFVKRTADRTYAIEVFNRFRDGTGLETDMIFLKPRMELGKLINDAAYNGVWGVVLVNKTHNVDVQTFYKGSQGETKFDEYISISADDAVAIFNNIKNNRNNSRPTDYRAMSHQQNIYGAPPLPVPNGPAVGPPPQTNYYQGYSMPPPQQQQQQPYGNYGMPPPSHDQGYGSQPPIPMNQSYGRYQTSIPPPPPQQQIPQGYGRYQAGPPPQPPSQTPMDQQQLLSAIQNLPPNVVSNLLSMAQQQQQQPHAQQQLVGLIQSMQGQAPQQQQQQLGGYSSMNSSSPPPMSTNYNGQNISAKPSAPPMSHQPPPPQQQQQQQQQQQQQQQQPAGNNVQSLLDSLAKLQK

B1: Myc-tagged nab3-ΔNBD mutant (Δ204–248) (natural protein, S. cerevisiae, UniProt P38996 1-802, looked up)
chain: MSDENHNSDVQDIPSPELSVDSNSNENELMNNSSADDGIEFDAPEEEREAEREEENEEQHELEDVNDEEEEDKEEKGEENGEVINTEEEEEEEHQQKGGNDDDDDDNEEEEEEEEDDDDDDDDDDDDEEEEEEEEEEGNDNSSVGSDSAAEDGEDEEDKKDKTKDKEVELRRETLEKEQKDVDEAIKKITREENDNTHFPTNMSDTALSVPPHDSTISTTASASATSGARSNDQRKPPLSDAQRRMRFPRADLSKPITEEEHDRYAAYLHGENKITEMHNIPPKSRLFIGNLPLKNVSKEDLFRIFSPYGHIMQINIKNAFGFIQFDNPQSVRDAIECESQEMNFGKKLILEVSSSNARPQFDHGDHGTNSSSTFISSAKRPFQTESGDMYNDDNGAGYKKSRRHTVSCNIFVKRTADRTYAIEVFNRFRDGTGLETDMIFLKPRMELGKLINDAAYNGVWGVVLVNKTHNVDVQTFYKGSQGETKFDEYISISADDAVAIFNNIKNNRNNSRPTDYRAMSHQQNIYGAPPLPVPNGPAVGPPPQTNYYQGYSMPPPQQQQQQPYGNYGMPPPSHDQGYGSQPPIPMNQSYGRYQTSIPPPPPQQQIPQGYGRYQAGPPPQPPSQTPMDQQQLLSAIQNLPPNVVSNLLSMAQQQQQQPHAQQQLVGLIQSMQGQAPQQQQQQLGGYSSMNSSSPPPMSTNYNGQNISAKPSAPPMSHQPPPPQQQQQQQQQQQQQQQQPAGNNVQSLLDSLAKLQK
notes: also called nab3 NBD mutant; nab3-NBD; source: S. cerevisiae (NRD1-TAP, RRP6-TAP or DIS3-TAP cells), 2μ URA3 plasmid, in lysate; not shown: 2xMyc, C-terminal, kept
B2: His-tagged full-length Rrp6 (enzyme, S. cerevisiae, UniProt Q12149 1-733, looked up)
chain: MTSENPDVLLSRVINVVRAASSLASQDVDFYKNLDRGFSKDLKSKADKLADMANEIILSIDEHHESFELKEEDISDLWNNFGNIMDNLLEMSDHSLDKLNCAINSKSRGSDLQYLGEFSGKNFSPTKRVEKPQLKFKSPIDNSESHPFIPLLKEKPNALKPLSESLRLVDDDENNPSHYPHPYEYEIDHQEYSPEILQIREEIPSKSWDDSVPIWVDTSTELESMLEDLKNTKEIAVDLEHHDYRSYYGIVCLMQISTRERDYLVDTLKLRENLHILNEVFTNPSIVKVFHGAFMDIIWLQRDLGLYVVGLFDTYHASKAIGLPRHSLAYLLENFANFKTSKKYQLADWRIRPLSKPMTAYARADTHFLLNIYDQLRNKLIESNKLAGVLYESRNVAKRRFEYSKYRPLTPSSEVYSPIEKESPWKILMYQYNIPPEREVLVRELYQWRDLIARRDDESPRFVMPNQLLAALVAYTPTDVIGVVSLTNGVTEHVRQNAKLLANLIRDALRNIKNTNEEATPIPSSETKADGILLETISVPQIRDVMERFSVLCNSNISKSRAKPVTNSSILLGKILPREEHDIAYSKDGLPNKVKTEDIRIRAQNFKSALANLEDIIFEIEKPLVVPVKLEEIKTVDPASAPNHSPEIDNLDDLVVLKKKNIQKKQPAKEKGVTEKDAVDYSKIPNILSNKPGQNNRQQKKRRFDPSSSDSNGPRAAKKRRPAAKGKNLSFKR
notes: Rrp6, S. cerevisiae nuclear exosome 3'-5' riboexonuclease, full length, cloned into pET30a-TEV; also called His-Rrp6; His6-RRP6; source: E. coli DE3 cells, purified (nickel-NTA agarose, batch)
B3: GST-tagged Rrp47 (natural protein, S. cerevisiae, UniProt P38801 1-184, looked up)
chain: MEDIEKIKPYVRSFSKALDELKPEIEKLTSKSLDEQLLLLSDERAKLELINRYAYVLSSLMFANMKVLGVKDMSPILGELKRVKSYMDKAKQYDNRITKSNEKSQAEQEKAKNIISNVLDGNKNQFEPSISRSNFQGKHTKFENDELAESTTTKIIDSTDHIRKASSKKSKRLDKVGKKKGGKK
notes: Rrp47, S. cerevisiae exosome cofactor; RRP47 gene amplified (W303 gDNA template) and cloned into pGEX-TEV; also called GST-Rrp47; source: E. coli DE3 cells, purified (glutathione Sepharose 4B, batch)

Experiments:
TAP-tagged Nrd1 = target: T1, TAP-tagged Nrd1; assay: co-IP; TAP-tagged Nrd1 precipitated on IgG Sepharose beads from lysates of NRD1-TAP yeast cells expressing Myc-tagged Nab3 proteins; IPP150 buffer (10 mM Tris-HCl pH 8, 150 mM NaCl, 0.1% NP-40), overnight at 4°C; anti-Myc immunoblot; % bound relative to input and to bound wild-type Nab3; details: partners not purified
[1] = target: T2, recombinant GST-tagged full-length Nab3; assay: pull-down; 8 μg purified GST fusion incubated with 14 μg purified His-Rrp6 and glutathione Sepharose 4B in IPP100 buffer (10 mM Tris-HCl pH 8, 100 mM NaCl, 0.1% NP-40) with 10 mg/ml BSA, 2 mM DTT, 2 hr at 4°C; anti-His immunoblot; details: both partners purified
[2] = target: B2; assay: as above; details: both partners purified

B1
% bound relative to wild-type Nab3 (TAP-tagged Nrd1): 8%

B2
binding result [1]: binds

B3
binding result [2]: binds
